Measurements published in paper PMC2704394 (2009).

B1: full length S. pombe Pik1, wild type [S. pombe] / purified Cdc4 protein [S. pombe] (parent complex)
chain 1: MPSSNSGNELLLRFFESAHFTSQLCVAYLSRYPNNIGIHHFLCEKLATFPYEEIEFFIPQLIHLVLNKDSESVALEEFIISQCEQNTQCALITFWYLQAHMVDLGLQPHSSCFKICKRLYNRIQILVFMSSSSLIQSQQKISENVTPALILSGIMLGGVCVPELLKKAGPIAIAQGRKAPRQDPDESDVDVLRRLSTEPRYSLDVLRSSLNNSIVEQHSEVSLRLKAPELTRTHSYQSSATLSIDEQRRVLRSNYFQQEIQFLFALQDISIRLIIVPRQARLSSLRAELALLNNNLPADVNIPLLRSYHKEVSHKIVRIDPKEATILNSAERVPYLIMVEVLSGELSFEPQSKKNKAKVQKIVSHKNQRKRWFDLTDVDPYTNLQDSTDNDISESESEGGDLSMSPLIKGLVPDTLSLSKSFSSFGNVSLQVPSSHRDTDVVLLSGRHSDSDGNGALKRSKIYASEITARMRAAATMLSQLDAEGSRRPKAETERIKNSIILDMQRLEEERLNEPSIYPVSVDISCAEDLRFGKETQKAERKGDRDDPSAATFQEDWYAKKERIRKSSPYGHYPNWDLVSVIVKTGADLRQETFACQLIYAFQRVWLECKEKVWVRRMKILVTGDNSGLIETITNAISVHSIKKNLTKQLREAELAQGKIAGKNVVTLKDYFIKQFGDPNSSRYRQAQTNFLQSLVAYSIISYLLQLKDRHNGNVLIDSEGHIIHIDFGFLLTNTPGNVGFESAPFKLTADYLEILDDRFDEYRSLMKAAFKSVRKNADQIILLVEVMQNNSTMPCFRAGENTSAQLLQRFQLQLGDKECDDFVDLLIQKANCSVWTRLYDLFQNITNGIY
chain 2: MSTDDSPYKQAFSLFDRHGTGRIPKTSIGDLLRACGQNPTLAEITEIESTLPAEVDMEQFLQVLNRPNGFDMPGDPEEFVKGFQVFDKDATGMIGVGELRYVLTSLGEKLSNEEMDELLKGVPVKDGMVNYHDFVQMILAN

Variants of: B1
Test: sandwich ELISA; about 56 µg lysate protein (highest point of 2-fold serial dilution); cells grown in the absence of thiamine; Cdc4-coated wells; parent: 0.27; read off a plot

Question: Which response does the source give for chain 1 R838A here?
Answer: Its response is roughly 0.027 Absorbance.
